The record followed here is PMC2939854 (2010).

The target of the experiment is GLP-1 receptor (Rattus norvegicus) (UniProt P32301). Kind of experiment: competitive cellular ELISA against GLP-1/hIgG2 (INS-1 cells). On the technique in general: ELISA stands for enzyme-linked immunosorbent assay.
GLP-1 receptor (Rattus norvegicus), sequence (P32301 22-463): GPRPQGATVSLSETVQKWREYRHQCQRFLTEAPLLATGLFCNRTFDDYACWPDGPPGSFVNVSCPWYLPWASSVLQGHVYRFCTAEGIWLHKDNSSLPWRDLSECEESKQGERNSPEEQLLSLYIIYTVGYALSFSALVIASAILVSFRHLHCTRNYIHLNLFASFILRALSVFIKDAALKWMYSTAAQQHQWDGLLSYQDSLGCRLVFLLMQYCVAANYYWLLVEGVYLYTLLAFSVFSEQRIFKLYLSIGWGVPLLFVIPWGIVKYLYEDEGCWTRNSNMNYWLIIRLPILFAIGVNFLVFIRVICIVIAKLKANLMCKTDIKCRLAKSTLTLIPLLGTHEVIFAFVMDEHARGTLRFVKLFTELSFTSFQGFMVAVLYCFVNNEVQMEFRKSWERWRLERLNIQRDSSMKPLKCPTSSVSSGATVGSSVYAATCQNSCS

Exendin-4, sequence (P26349 48-86): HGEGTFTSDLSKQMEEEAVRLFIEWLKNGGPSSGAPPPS

As usually defined, the IC50 is the concentration that gives 50% inhibition. A higher IC50 goes with weaker potency in that assay. For Exendin-4 (from UniProt P26349), the IC50 stood at 8.15 nM.
